Data: US20260116920A1 (PEPTIDREAM, published 2026)
Values joined by “and” are separate entries in the source; they are usually repeats but may differ in a detail not shown here. Equal values may be shown once. Starred links: 1 amine or outer side, 2 acyl side, 3 side chain; linkers in the order of their positions; H or OH if unused. Positions of bridges follow the written chain, without caps; N, C: chain ends. Non-standard residues stand in square brackets, D forms with d. Primed or numbered codes have the meaning given here. No end group written: not given here. *: point of attachment. E(PEG8Me) = (S)-30-amino-27-oxo-2,5,8,11,14,17,20,23-octaoxa-26-azahentriacontane-31-oic acid, COCCOCCOCCOCCOCCOCCOCCOCCNC(=O)CC[C@H](N[*:1])C(=O)[*:2]; Phe(4-OMe)(3) = (S)-2-amino-3-(4-methoxyphenyl)propanoic acid (source code F4OMe), COc1ccc(C[C@H](N[*:1])C(=O)[*:2])cc1; F4aao = (S)-2-amino-3-(4-(carboxymethoxy)phenyl)propanoic acid, O=C([C@H](Cc1ccc(OCC(=O)[*:3])cc1)N[*:1])[*:2]; Ndm = N4,N4-dimethyl-L-asparagine, CN(C)C(=O)C[C@H](N[*:1])C(=O)[*:2]; Trp(1-CH2CO) = O=C([C@H](Cc1cn(CC(=O)[*:3])c2ccccc12)N[*:1])[*:2]; Trp(5-Cl) = N[C@@H](Cc1c[nH]c2ccc(Cl)cc12)C(=O)O; Phe(3-COOH) = N[C@@H](Cc1cccc(C(=O)O)c1)C(=O)O; NH(CH2CH2O)8Me = COCCOCCOCCOCCOCCOCCOCCOCCN*; NMePhe(3-Cl) = CN[C@@H](Cc1cccc(Cl)c1)C(=O)O; NMePhe(4-F) = CN[C@@H](Cc1ccc(F)cc1)C(=O)O; 3Pal(6-NH2) = Nc1ccc(C[C@H](N)C(=O)O)cn1; NMeY = CN[C@@H](Cc1ccc(O)cc1)C(=O)O; NMeR = CN[C@@H](CCCNC(=N)N)C(=O)O; NMeF = CN[C@@H](Cc1ccccc1)C(=O)O; 3Pal = N[C@@H](Cc1cccnc1)C(=O)O; 4Pal = N[C@@H](Cc1ccncc1)C(=O)O

How the values were obtained:
[1] = molecular target: T1, human transferrin receptor (hTfR) (human, UniProt P02786 89-760); test: SPR; C = KD 100 nM-1 uM
T1 construct: used as 0.5 uM hTfR dimer solution, immobilised on an NTA sensor chip (Ni capture plus EDC/NHS coupling); also called human TfR; TfR1
T1 sequence (P02786 89-760 limits assumed): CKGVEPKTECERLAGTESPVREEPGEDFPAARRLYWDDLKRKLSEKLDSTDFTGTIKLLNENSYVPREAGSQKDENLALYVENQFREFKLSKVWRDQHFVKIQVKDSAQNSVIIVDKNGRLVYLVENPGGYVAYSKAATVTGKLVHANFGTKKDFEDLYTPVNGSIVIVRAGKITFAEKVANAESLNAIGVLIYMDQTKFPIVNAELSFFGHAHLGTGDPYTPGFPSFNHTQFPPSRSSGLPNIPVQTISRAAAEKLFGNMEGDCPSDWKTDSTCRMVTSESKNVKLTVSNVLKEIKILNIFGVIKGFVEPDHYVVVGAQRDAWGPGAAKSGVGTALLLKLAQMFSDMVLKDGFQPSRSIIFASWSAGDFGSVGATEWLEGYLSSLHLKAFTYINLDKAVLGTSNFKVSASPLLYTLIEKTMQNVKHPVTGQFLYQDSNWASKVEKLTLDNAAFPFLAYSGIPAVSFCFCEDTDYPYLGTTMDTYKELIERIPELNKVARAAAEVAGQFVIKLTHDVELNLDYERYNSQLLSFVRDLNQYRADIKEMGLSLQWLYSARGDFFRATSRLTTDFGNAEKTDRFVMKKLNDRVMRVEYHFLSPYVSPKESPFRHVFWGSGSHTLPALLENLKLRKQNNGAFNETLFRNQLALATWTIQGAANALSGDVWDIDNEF
Procedure: (§1) NTA sensor chip (Global Life Sciences Technologies Japan K.K.) was inserted into BiacoreT200 (Global Life Sciences Technologies Japan K.K.), then the priming operation was performed three times by using running buffer containing: 10 mM HEPES pH 8.0 (Nacalai Tesque, Inc.), 150 mM NaCl (Nacalai Tesque, Inc.), 0.05% Tween 20 (Nacalai Tesque, Inc.), 0.1% BSA (SIGMA-ALDRICH) and 1.0% DMSO (FUJIFILM Wako Pure Chemical Corporation), and equilibrated at a flow rate of 30 μL/min. 350 mM EDTA solution was reacted at a flow rate of 10 μL/min for 60 seconds, 0.5 mM […] solution (Kishida Chemical Co., Ltd.) was reacted at a flow rate of 10 μL/min for 60 seconds, and then the NTA sensor chip was washed with 3 mM EDTA solution (Nacalai Tesque, Inc.) at a flow rate of 10 μL/min for 60 seconds. After mixing 50 μL each of 60 mM EDC solution (Global Life Science Technologies Japan K.K.) and 650 mM NHS solution (Global Life Science Technologies Japan K.K.), the reaction was carried out at a flow rate of 10 μL/min for 420 seconds. 150 μL of 0.5 μM hTfR dimer solution was prepared by dilution with running buffer and reacted at a flow rate of 10 μL/min for 300 seconds to immobilize hTfR on the NTA sensor chip. For the human transferrin receptor (hTfR), recombinant hTfR described in Example 2 of WO2018/124121 was used. After immobilization, capping was performed by reacting with 1.0 M ethanolamine solution (Global Life Sciences Technologies Japan K.K.) at a flow rate of 10 μL/min for 420 seconds. Peptide lysate prepared in DMSO solution to 10 mM was diluted with running buffer to be a final concentration of 10 μM peptide lysate, then peptide solutions of 100 nM, 50 nM, 25 nM, 10 nM, and 5 nM were prepared. Using the above samples, the kinetics of the peptide against hTfR was obtained by SPR measurement.
(§2) The kinetic evaluation model was single-cycle kinetics, and curve fitting was performed using Biacore T200 Evaluation Software Version 3.0 (Global Life Science Technologies Japan K.K.). The binding of the peptide to hTfR was evaluated by performing curve fitting on the obtained sensorgram by least squares method and obtaining the KD value.

[2] = molecular target: T1, human transferrin receptor (hTfR); test: SPR, hTfR immobilised; legend: low signal indicates no activity
Procedure: (§3) NTA sensor chip (Global Life Sciences Technologies Japan K.K.) was inserted into BiacoreT200 (Global Life Sciences Technologies Japan K.K.), then the priming operation was performed three times by using running buffer containing: 10 mM HEPES pH 8.0 (Nacalai Tesque, Inc.), 150 mM NaCl (Nacalai Tesque, Inc.), 0.05% Tween 20 (Nacalai Tesque, Inc.), 0.1% BSA (SIGMA-ALDRICH) and 1.0% DMSO (FUJIFILM Wako Pure Chemical Corporation), and equilibrated at a flow rate of 30 μL/min. 350 mM EDTA solution was reacted at a flow rate of 10 μL/min for 60 seconds, 0.5 mM […] solution (Kishida Chemical Co., Ltd.) was reacted at a flow rate of 10 μL/min for 60 seconds, and then the NTA sensor chip was washed with 3 mM EDTA solution (Nacalai Tesque, Inc.) at a flow rate of 10 μL/min for 60 seconds. After mixing 50 μL each of 60 mM EDC solution (Global Life Science Technologies Japan K.K.) and 650 mM NHS solution (Global Life Science Technologies Japan K.K.), the reaction was carried out at a flow rate of 10 μL/min for 420 seconds. […]
as §2

[3] = molecular target: T1, human transferrin receptor (hTfR); test: SPR; A = KD <1 nM
Procedure: as §1, §2

[4] = molecular target: T1, human transferrin receptor (hTfR); test: SPR, hTfR immobilised, single-cycle kinetics
Procedure: as §3, §2

[5] = molecular target: T1, human transferrin receptor (hTfR); test: SPR; ratio to 894_3151

| Binder | KD [1] [nM] | other results |
| --- | --- | --- |
| {CH2CO}-AV[NMePhe(4-F)]V[Trp(5-Cl)]NYYII[NMeR][dR]FYC-NH2 (thioether N-15; not fully specified (residue 14); also: linker PEG4c, place not given here) [894_0257] | 100 to 1000 |  |
| {CH2CO}-AV[NMePhe(3-Cl)]V[Trp(1-CH2CO)]N[3Pal(6-NH2)][3Pal]IIRE(NH(CH2CH2O)8Me)[Phe(3-COOH)][NMeY]C-NH2 (thioether N-15; also: linker PEG4c) [894_0353] | 100 to 1000 |  |
| {CH2CO}-AV[NMePhe(3-Cl)]V[Trp(1-CH2CO)]NY[Phe(4-OMe)(3)]IE[E(PEG8Me)][E(PEG8Me)]F[NMeY]C-NH2 (thioether N-15; also: linker G-de-de-de-ds-ds-KN3, attachment not given here) [894_3180] |  | binding result [2]: no binding (tested: peptide tested up to 100 nM) |
| {CH2CO}-AV[NMeF]VWNYYIIRRY[NMeY]C (thioether N-15; not fully specified (C-terminus)) [894_3151] |  | KD [3]: < 1 nM; Kd [4]: 1.3 nM and 1.8 nM; KD (Each Peptide)/KD (894_3151) [5]: 1 and 1.4 |
| {CH2CO}-AV[NMePhe(3-Cl)]V[Trp(1-CH2CO)]N[3Pal(6-NH2)][3Pal]IIRE(NH(CH2CH2O)8Me)[4Pal][NMeY]C-NH2 (thioether N-15; also: linker PEG4c) [894_0354] | 100 to 1000 |  |

Now from value to binder, other results behind:

| KD [1] [nM] | Binder | other results |
| --- | --- | --- |
| 100 to 1000 | {CH2CO}-AV[NMeF]VW[Ndm]YYIIRRY[NMeY]C-NH2 (thioether N-15; SMILES CC[C@H](C)[C@@H]1NC(=O)[C@H](Cc2ccc(O)cc2)NC(=O)[C@H](Cc2ccc(O)cc2)NC(=O)[C@H](CC(=O)N(C)C)NC(=O)[C@H](Cc2c[nH]c3ccccc23)NC(=O)[C@H](C(C)C)NC(=O)[C@H](Cc2ccccc2)N(C)C(=O)[C@H](C(C)C)NC(=O)[C@H](C)NC(=O)CSC[C@@H](C(N)=O)NC(=O)[C@H](Cc2ccc(O)cc2)N(C)C(=O)[C@H](Cc2ccc(O)cc2)NC(=O)[C@H](CCCNC(=N)N)NC(=O)[C@H](CCCNC(=N)N)NC(=O)[C@H]([C@@H](C)CC)NC1=O) [894_3152] |  |
| 100 to 1000 | {CH2CO}-AV[NMePhe(3-Cl)]V[Trp(1-CH2CO)]N[3Pal(6-NH2)][F4aao]IIRE(NH(CH2CH2O)8Me)[4Pal][NMeY]C-NH2 (thioether N-15; also: linker PEG4c) [894_0356] |  |
| 100 to 1000 | {CH2CO}-AV[NMePhe(3-Cl)]VWN[3Pal(6-NH2)][F4aao]II[E(PEG8Me)]R[4Pal][NMeY]C-NH2 (thioether N-15; also: linker PEG4c, attachment not given here) [894_0455] |  |
| 100 to 1000 | {CH2CO}-AV[NMePhe(3-Cl)]V[Trp(1-CH2CO)]N[3Pal(6-NH2)][F4aao]IIRE(NH(CH2CH2O)8Me)[Phe(3-COOH)][NMeY]C-NH2 (thioether N-15; also: linker PEG4c) [894_0355] |  |
